{"source": "the DeepSol protein solubility set", "data": [{"test": "soluble on expression in E. coli; label from the status in PepcDB or PDB records", "values": [{"sequence": "MGSDKIHHHHHHMSELIEVTHLTFTYTGQAAPALKDVSLTIHAGEFITLVGATGSGKTTLLKQLKHELWPAGERTGSLTFQDTAIQALSPVESAQQIGYVAQDPQVQPIMATVMEELAFPLENLGYPTATINDRIAEIANYLDLNHLLQRAIETLSGGQLQLVNLASVLALKPQVILLDESTAQLDPTTAQKFLNILQQVHDELDLTIVLTEHRLSRVMALTDRVALLANGQVLTVAEPTPALQQMAATPALQAFVPPVPHFFLDHNLVVTPLPLSVTMGRRALRQSSWRFQAVTTRQPAQSGPRESVLVATGVSFHYPTTGDILHQVELQVATGDWLAIIGKNGSGKSTLLTVLAGLQKPQHGKVRLNQQVIWRMKNQDRVLQVGYLSQNPTEQFNGDSVREELTAQAQLRGTSVAQRVDQMLIRCHLTAVADQNSFDLSGGQQQLLGLGLALMTEPQVLLLDEPTKGLDPDTKLRIGQLLQQAHETGLTIIMASHDMDFSAQFADTCTFMFNGRVNPPQATRLFFTQNFLATTAVNRLLRQQVPQALFSQDVVRTDKGGE", "soluble on expression in E. coli": "not soluble"}, {"sequence": "MGSDKIHHHHHHMSELLGLIVDARPLQAHFRIPHTSLLLDTYPFPPKTTAVGMLAGCMGLGEEGFKKLLEKIKYGVIIEDPGEKIEEVSVIYKNPYSPSYPITRVSLYKPRFRMFFAGEERVIEEAYEGLLDPKFVPYMGDSESLFYPGKKRYVEVVDVQEGKEDILRSVIPEVKFKEFVPLRRKVLVPKVYEAPVKFTYKGKSRRAVYGRFIAFSGGYVKLEKKIDVLLFDGEPIATF", "soluble on expression in E. coli": "not soluble"}, {"sequence": "MGSDKIHHHHHHMSEQMFEGWNGAIVVTPETVKIIYGNQHSKGEGEKEITLESIQSIELKKPRFLAQGYIQLILEGSKKKKGALAAMGDEHSIMINDEAQYKQFEQAKELIELFQHEQKLVSEQNEKGEGWREDVFKGGNGTLVVTPETIKIIYSWLHTRGRGEKTINIRSISSIQLKEPAVVAGYIQFTFQGSIENQSRSSFSAIDDQNTIAISNKHQFEDFKRAKALIESYQNQLYAPQIQSSSTSGADELKKYKELLDDGIISEEEFNAKKKQILGI", "soluble on expression in E. coli": "not soluble"}, {"sequence": "MGSDKIHHHHHHMSEVHTTIIDLDAGAVFSGTPSGRIIKGFDKPCAHTPNIDPDYVFHECSRDIVVWLMDSSDPLYVFGPTGSGKTSAIKQLAARLNYPVFDVTGHGRLEFPDLVGHLSVRDGSMEFQYGPLALAMRHGGILLLNEIDLLEPATATGFNGILDGEPLCIPENGGEIITPHPMFRFAATANTNGGSDDTGLYQGTLRQNLAFLDRFWLCEMPYPAPEAEKALLERRAPMLPDDIRTRMVDYANEVRRLFMGESGTTYGHSIEVTFSTRTLLRWADLTVRFQPLARQGIQPLTYALDRALGFKASKDTRTTLHELAQRLFPQHAATGE", "soluble on expression in E. coli": "not soluble"}, {"sequence": "MGSDKIHHHHHHMSFVSYAQNFEDVMLWRALRHIKNGYYIDVGAFSADEDSVTRAFYDQGWSGINIEPNPKYHEELVARRDRDINLRVAVSDRAEDRALYVIDDTGLTTLEPDIAEMHREKGFSKIDVVVPALTLEEIWTTHVPQDQDVHFLKIDVEGHELPVIKGLDWDRHRPWIVVVESTLPATQQLSETGIVEALAKADYEAVYWDGLNRYYVAKERAELTKYFDDPPNVFDGFRRSSEVEFEQRALQAEAELYLEREHVVRISKENWDHVHHALEVKFSALQEAMAAEAQAARRDVTQELVELRMQLSKQGMTSSFWTRFFFRPTGKPKKALRRLLFHTNGKPRGIFRNRVLKSNGQPRPAFLRWMASAEYQQLRRAVKVAASDESQHVLESGASTLSQNEGVFVGVLQSARTEKSH", "soluble on expression in E. coli": "not soluble"}, {"sequence": "MGSDKIHHHHHHMSGGSSMTDQGWAMKGELVLSCNCTVFCPCVLSLGNHAPTEGYCQTWAGFRIDAGHFGEVDLSGLNLGLIMEIPGYMSRGNWTAGLFIDKRASIYAVKALTKIFTGKAGGTTSLLSILVGKFLPITYETRDKMRIFQIPKIIDGAVTPIAGKDREKDTVITNSEYWIAPEIIVARSDKSKMRAFGRNWNFAGRSAEICKLDWRGP", "soluble on expression in E. coli": "not soluble"}, {"sequence": "MGSDKIHHHHHHMSIAIRRDEEIALSCHGVSKSFVISGEQNIWRMFCALPVRGEVFAALRDVSLEVPRGKIVGILGRNGAGKSTLLRVLGGVYQPTSGTVDVHGQVCGLFEMGGFGNRELSGREYATRYLTVMGAPRKDRGDLLADIAEFSELGADFDRKILTYSAGMAARLYFSTATAMRHEIYLIDELLSVGDEHFQAKCWIRMRNLLLNGASGILVTHDWVSTLKLCQQSHILERGSIVASGRTDAAVVKYLDLPVPDGALARFCDSDRATWHAVAGEDAVFEFDIESEEDIPLVFTYSVELMRIGIGWDIMLLGQRPIGSGNGRRRVQLKVPALPLAPGEYSLTVGLIKEKTRAEDEAVICDARGWTTGNGYVLEVSGTLEQGTTILPMEISGWIDD", "soluble on expression in E. coli": "not soluble"}, {"sequence": "MGSDKIHHHHHHMSIDTITLQCFLAVAETQSFTKAAQRVGRTQSAISQQIAKLENLIEKPLINRGRELSLTTDGEIFLGYAKRIYELHRESLDRFKAPELQGEIRFGLPEDFASIILSDVLVEFSRLHPRVLLNVECDLTLNLIERFNEGKFDLILIKTTQQQVGSESIYVCTEPVEWIGKKELLPLLDKPGPIPLVLSPTPCVYRGNVIDTLDKNHIDWRLVYSSASYAGKMAAVRAGLGITAIQRSMIPNYLERLDYDFLPILNDVHVSLLKKSGSNKAIESLEFFILQKLKY", "soluble on expression in E. coli": "not soluble"}, {"sequence": "MGSDKIHHHHHHMSIEAKFKKLGTDNAPGQEVRQSAAGLEALIRGAPIEGRPVDFSHGDVDAHEPTPGAFDLFSAGVQSGGVQAYTEYRGDLGIRDLLAPRLAAFTGAPVDARDGLIITPGTQGALFLAVAATVARGDKVAIVQPDYFANRKLVEFFEGEMVPVQLDYVSADETRAGLDLTGLEEAFKAGARVFLFSNPNNPAGVVYSAEEIGQIAALAARYGATVIADQLYSRLRYAGASYTHLRAEAAVDAENVVTIMGPSKTESLSGYRLGVAFGSRAIIARMEKLQAIVSLRAAGYSQAVLRGWFDEAPGWMEDRIARHQAIRDELLHVLRGCEGVFARTPQAGSYLFPRLPKLAVAPAEFVKILRLQAGVVVTPGTEFSPHTADSVRLNFSQDHEAAVAAARRIVTLVERYRA", "soluble on expression in E. coli": "not soluble"}, {"sequence": "MGSDKIHHHHHHMSIINDEKLRKYVPEERLDKVKERLEILDTYDLSYITSNFIWKGRRFSPEQVWPIKIYYGKADRELAEKIEKEFRRFVALTIVFPKRLFTASGAVDLYWHFLILHTKEYEKFSKSVWGIPRYDNVLLKKLLNNDDNSFRLRFNLKPDNVNEITILPKKALESLDDKTLDRVLMLERLDLSPISENLLHTIDEFKFVPEQRFPLIAHFGKLDNNIVKRIELEFKKWMALNIAYGGKELNYAAPSGVVDMYFHLFILHTILYKQFCEIFFGKFIHHPLGELF", "soluble on expression in E. coli": "not soluble"}, {"sequence": "MGSDKIHHHHHHMSILTVENVSHSYGEKTILYNACFRLLKGEHVGLVGQNGIGKSTLLKILTGELIHDEGNIEWFPHVKVGFLQQHIDLQEGITIEGYLQSAFADLYVIECEMLKIAEEMNGAGEVEKLLVKYGELQTILESSNFYHIHTEVEEVAIGLGLFEIGLKKDVSKLSGGQRTKLLLGKLLLEKADVLLLDEPTNYLDTAHIEWLQSYLRLYEKAYVIISHDELFLNSITNVIFHLEGGKVKRYVGNYEKFVQSYQVQKKQLQSAYVKQQKEISQLETFIQKNKIRKAKQAKSREKVLEKMQRIEKIHPVPRSRFDFNVYEEPVSRILQAEKLRIGYSDPLCPELNLQVKKGEKIAIIGHNGIGKTTMLKTLLGQIKPLSGSISVGERVNPAYFAQEEFASETTPLEKVWAERPDMTKKEVRQALAKCGLKEEHVLKPIRLLSGGEQTKVRLCELIVKKSNVLILDEPTNHLDIETKKALQEALQRYRGTVLLVSHEPSFYEAWITKVWNIEEWNAEQYE", "soluble on expression in E. coli": "not soluble"}, {"sequence": "MGSDKIHHHHHHMSILVPEQVREALDVHVVSFLGGRLNKHWLVDVCGHKLVLRRWAADREDAGYERDLRQAIRASGWPVARDVTALTEIAGELWSLAEFLPGEPHPEKNSAAELSLRGRLMAEFHQVTASLNPGRRKHWRLPDEILSDDHLEQVFEHCPDVRLRRLLFWHLQRGRQLAAGLPWSEQSLQLIHGDFTPWNLLYREGQLSGLLDCEMSRPEYRISEFALSWRGRYDALIHAYHAVSPLSAPEWNMLTPAWWALLLEGAYRNLVSGTEDQGWTAGMLLRRSPLMGIESCPC", "soluble on expression in E. coli": "not soluble"}, {"sequence": "MGSDKIHHHHHHMSISQMQVFNKYFMPAIIETLGQQIQKFNAASRGAIMLTTAGFEGDFLQESFYQAIHGARRRVDRYAANGSASPTDLTQLKHSSVKVAGGFGPIRYEPSQMTWLEKPTAEGIEVASRHFAEALLQDQLNTAIAALVAAISNQALATVNVSAKTGLNYSVLNDAHAKFGDSSGLIVANVMSGQVYHKLIGQNLVNAQQLFEYGAVTVVDILGKTVVVTDAPALYATGTPNLQKVLGLVAGAATVSDGGDLITNIETSNGKERIETTFQADYTFGLGLKGYTWDEATGGKSPTDAELATGTNWDKVATDIKHTAGVIAIGDASK", "soluble on expression in E. coli": "not soluble"}, {"sequence": "MGSDKIHHHHHHMSKFHELTVASVTRETRDAVAVTFAVPEDLADTYRYVQGQHLTLRAGIGGEDVRRSYSICSAVQDRRLRVAIKRVDGGMFSNWANDALQPGMTLEVMPPSGHFHVPLSDTHSKHYVAFAAGSGITPMLSIIKTTLMTEPDSRFTLFYGNRASSSVLFKEELEDLKDTYLERFNLVFILSREQLDIDLFNGRIDGEKVRALLRHWVRPQDIDVAFICGPHSMMEEVSQALQENGVDKARIKRELFATSIPAARPAAHAHKQLGQQQCEVTVIQDGRTRQFTLEKNKETILDAALAQGIELPYSCKGGVCSTCRCKRIEGEVDMDVNFALEDYEVARGFILSCQSYAVTDKLVIDFDQET", "soluble on expression in E. coli": "not soluble"}, {"sequence": "MGSDKIHHHHHHMSKILMVGSGPVAIQLARLCNLHGEHMVDMVSRVHASTKSKRVFDAYHRDGFFSVMTQNDAHQCFSGKFTVRHFFKDVKDITQYYDVVILACTADAYRPILQQLSKSTLKRIKQIILVSPTLGSHMLVKQILSDVHCEGEVISFSTYLGDTRIFDKAQPHCVLTTRVKSKLFVGSTHSQSITLYKLKSLFDYLNIELTTMDTPLHAEIHNSSLYVHPPLFMNQFSLKAVFEGTKVPVYVYKLFPEGPITMTLIHEMRLMWQEMMMILKKLKVPSVNLLKFMVKENYPIRDETMREVDIESFENLSAIHQEYLLYVRYTAILIDPFSNPDDQGAYFDFSAVPYKHVDTDEQGVIHIPRMPSEDYYRTLMIQAIGRALNVATPMIDTMLLRYETTVKQYCDTHLHQQLSKQFELHHFKQDLALVTNYLTFYR", "soluble on expression in E. coli": "not soluble"}, {"sequence": "MGSDKIHHHHHHMSLDNHYDVDAALDKALKDDFLRKATRRATDRLRNNKLAITEELGNWEEWRQVGERIRNHVVENLDYYLDMLIENVEKNGGHVHLAKTPEDGVRIVQEIFQKHGFKSVIKSKSMITEEIHLNPVLEKDGIEVVETDLAEYIIQIADEPPSHIIVPAMHKTREQIAKLFEPIAGHPLESDTPTLTKFAREQLREKFLTSKIGITGCNFAVADTGTITMVTNEGNGRLTSTMPEVQITMMGMERIVPSYKELSVLLNLLARSATGQRLSVYTTMITPPKREGDIDGPKEWHLVILDHNRSEILGDEDFRSSLRCIRCGACFNVCPVYRQVGGHAYGSVYSGPIGVVITPLLEQNYEKWGHLPYYSSLCAACSEACPVRIPLQDLIVKHRDRKVLKGYTSGVEKKIFKYYGYYFSHPKTLSKFVRLGSKFQFILMRNGRIASGPPPLSNWTNSKTLPPVAKQMFRDQWPELEKKLKTMQRGDQ", "soluble on expression in E. coli": "not soluble"}, {"sequence": "MGSDKIHHHHHHMSLFAALRLPREILFGKGQRHALSTVAGRFGRHALVCTDERFAGTAVFAEIVQSLQAASIEVLVHDRVLPDVPRDSVGICVDEAEKFQPEMVIGIGGGSCLDFAKCADLLLSHGGKLQDYYGEFKVPGPTLPLIAVPTTAGTGSEVTPVAVISDPDRTLKVGISSPYLIAAVALCDPELTMTCPPALTAIAGADALTHAIEAFTAKQRGEDPSLAQQHVFIGKTALTDHFALLAIKLLGRSLEKACTDGTDADARADVMMGALAAGCAFGTAGTAAAHAVQYPAGALTHTAHGLGVATMMPYVMTYNSRVVAAEMAEIGDALGLEAKGRSAEEMADATIKEIRRLFTAIGITPTLADLGLPADKLDWTADQALGIDRLIKNNPRPFDLTAMRRLVQAAHDGDLAACAM", "soluble on expression in E. coli": "not soluble"}]}]}
